# In patent US20220273793A1, “HORSE IL-31 INDUCED PRURITUS MODEL” (priority 2021, published 2022):
# “And” between values parts separate entries of the source, which are not always exact repeats. Identical values can stand only once.
# Legend:
# equine IL-31 = test: Equine challenge study using the IL-31 itch model after IL-31 mimotope vaccines; format: in vivo, Horse; conditions: for 1st Challenge Score (pruritus score): CRM197 conjugate 25 μg/dose, SP oil + CpG, IL-31 challenge Day 14 post-boost; for 1st Challenge Score (pruritus score) / Percent Change, 1st Challenge vs Historical Score / Percent Change, 2nd Challenge vs Historical Score / 2nd Challenge Score (pruritus score): individual horses; for 1st Challenge Average % Change in pruritus scores / Percent Change, 1st Challenge vs Historical Score: Day 14 post-boost; for 1st Challenge Average % Change in pruritus scores / 2nd Challenge Average % Change in pruritus scores: group mean; for 2nd Challenge Average % Change in pruritus scores / Percent Change, 2nd Challenge vs Historical Score: Day 105 post-boost; for 2nd Challenge Score (pruritus score): IL-31 challenge Day 105 post-boost
# Description: Based on the high antibody titers elicited by horses vaccinated with CRM197 conjugated IL 31 mimotopes (FIG. 4), horses from the serology studies were utilized in a challenge study using the IL-31 itch model developed by the present inventors. Selected horses were vaccinated with an additional boost of the corresponding mimotope vaccines, after conclusion of the serology study, and were challenged with IL-31 at Day 14 after the final boost and at Day 105 after the final boost.
# Various candidate IL-31 mimotope constructs were evaluated, including ZTS-7240 (comprising SEQ ID NO:4) mimotope (constrained) corresponding to the 1505 region and ZTS-241 (comprising SEQ ID NO:6) mimotope (linear) corresponding to the A helix of the IL-31 homology model (FIG. 2). Study design is outlined in Table 6 below:
# There were no treatment groups T02 and T04 assigned in this study in order to continue to keep the group designations of respective horses from the first serology study. One horse each from treatment groups T02 and T04 from the first serology were used in treatment group T08 as negative controls (No booster dose given; challenged on Day 14 and Day 105 along with other treatment groups).
# Horse = test: Equine IL-31 induced pruritus model via IL-31 challenge (dose finding); format: in vivo
# Method: Three to eight horses were tested at one time. Dose level depended on the pruritic response from the previous dosing group. The final desired dose was repeated. The final study design was as follows (Table 1):
# Observations of normal pruritic behavior (baseline pruritus scores) were made prior to the administration of IL-31 challenge. The horses were scored the same was as post challenge observations except no IL-31 challenge was administered and observation of normal pruritic behavior was made for 30 minutes.
# Following baseline pruritus score, horses were administered the IL-31 challenge. IL-31 challenge was administered intravenously to each animal via a jugular vein. The horse ID and time of administration was recorded. Recording of pruritic activity began approximately 15 to 25 minutes after the last of the horses is administered the IL-31 challenge (Table 2 (A to F) below and FIG. 1).
# Classical signs of pruritus in horses include: • Biting or scratching at self • Rubbing against objects • Feet stomping • Tail flicking • Head or body shaking • Rolling • Twitching of skin
# A “yes” response was indicated by marking a “1” and a “no” response was indicated by marking a “0” during the one minute interval. The cumulative number of yes responses were added to determine a cumulative Pruritus Score for each horse.
# [1] = IL-31 0.05 μg/kg IV, average (Table 2E)
# [2] = IL-31 0.1 μg/kg IV, average (Table 2D)
# [3] = IL-31 0.25 μg/kg IV, average (Table 2C)
# [4] = IL-31 0.25 μg/kg IV, repeat in second set of horses, average (Table 2F)
# [5] = IL-31 0.25 μg/kg IV, repeat in second set of horses, individual horses (Table 2F)
# [6] = IL-31 0.5 μg/kg IV, average (Table 2B)
molecule,measurement,setting,value
"Ac-CGSGNSSAILPYFKAISPSLNNDKSLYIIEQLDKLNF-NH2 (not fully specified; printed as Ac-CGSGNSSAILPYFKAISPSLNNDKSLYIIEQLDKLNF-NH2; numbers in words are those of the source; also: CRM197 conjugate) [ZTS-765, tested as CRM197 conjugate with SP oil + CpG]",1st Challenge Score (pruritus score),"equine IL-31; T01, SC",17 and 11
same,1st Challenge Average % Change in pruritus scores,"equine IL-31; T01, SC",−82.12%
same,"Percent Change, 1st Challenge vs Historical Score","equine IL-31; T01, SC",−74.81% and −89.42%
same,2nd Challenge Average % Change in pruritus scores,"equine IL-31; T01, SC",−25.88%
same,"Percent Change, 2nd Challenge vs Historical Score","equine IL-31; T01, SC",−39.26% and −12.50%
same,2nd Challenge Score (pruritus score),"equine IL-31; T01, SC",41 and 91
same,1st Challenge Score (pruritus score),"equine IL-31; T03, T05, T06, T07: IM",4 and 33 and 21
same,1st Challenge Average % Change in pruritus scores,"equine IL-31; T03, T05, T06, T07: IM",−77.62%
same,"Percent Change, 1st Challenge vs Historical Score","equine IL-31; T03, T05, T06, T07: IM",−94.54% and −66.33% and −72.00%
same,2nd Challenge Average % Change in pruritus scores,"equine IL-31; T03, T05, T06, T07: IM",−45.03%
same,"Percent Change, 2nd Challenge vs Historical Score","equine IL-31; T03, T05, T06, T07: IM",−23.60% and −40.82% and −70.67%
same,2nd Challenge Score (pruritus score),"equine IL-31; T03, T05, T06, T07: IM",56 and 58 and 22
"Ac-CGSGGPIYQLQPKEIQAIIVELQNLSKK-NH2 (not fully specified; printed as Ac-CGSGGPIYQLQPKEIQAIIVELQNLSKK-NH2; numbers in words are those of the source; also: CRM197 conjugate) [ZTS-7241, tested as CRM197 conjugate with SP oil + CpG]",1st Challenge Score (pruritus score),"equine IL-31; T03, T05, T06, T07: IM",12 and 5 and 38
same,1st Challenge Average % Change in pruritus scores,"equine IL-31; T03, T05, T06, T07: IM",−82.18%
same,"Percent Change, 1st Challenge vs Historical Score","equine IL-31; T03, T05, T06, T07: IM",−86.44% and −94.87% and −65.23%
same,2nd Challenge Average % Change in pruritus scores,"equine IL-31; T03, T05, T06, T07: IM",−68.70%
same,"Percent Change, 2nd Challenge vs Historical Score","equine IL-31; T03, T05, T06, T07: IM",−87.57% and −48.72% and −69.81%
same,2nd Challenge Score (pruritus score),"equine IL-31; T03, T05, T06, T07: IM",11 and 50 and 33
same,reduction in itch (relative to historic scores),"equine IL-31; vaccinated horses, after 105 days of the final booster dose",68%
"IL-31: recombinant histidine tagged equine IL-31 polypeptide, SEQ ID NO: 10 less signal sequence, used as IV challenge material (protein) GPIYQLQPKEIQAIIVELQNLSKKLLDDYLNKEKGVQKFDSDLPSCFTSDSQAPGNINSSAILPYFKAISPSLNNDKSLYIIEQLDKLNFQNAPETEVSMPTDNFERKRFILTILRWFSNCLEHRAQHHHHHH",Post Challenge Pruritus Score/120,"Horse; IL-31 0.05 μg/kg IV, 120 min observation, individual horses (Table 2E)",50 and 36 and 67 and 43 and 25 and 42 and 45 and 37
same,"Post Challenge Pruritus %, Average",Horse; [1],36%
same,"Post Challenge Pruritus Score/120, Average",Horse; [1],43.1
same,Post Challenge Pruritus %,"Horse; IL-31 0.05 μg/kg IV, individual horses (Table 2E)",42% and 30% and 56% and 36% and 21% and 35% and 38% and 31%
same,Post Challenge Pruritus Score/120,"Horse; IL-31 0.1 μg/kg IV, 120 min observation, individual horses (Table 2D)",62 and 72 and 115 and 74 and 71 and 86 and 96 and 103
same,"Post Challenge Pruritus %, Average",Horse; [2],71%
same,"Post Challenge Pruritus Score/120, Average",Horse; [2],84.9
same,Post Challenge Pruritus %,"Horse; IL-31 0.1 μg/kg IV, individual horses (Table 2D)",52% and 60% and 96% and 62% and 59% and 72% and 80% and 86%
same,Post Challenge Pruritus Score/120,"Horse; IL-31 0.25 μg/kg IV, 120 min observation, individual horses (Table 2C)",95 and 84 and 109 and 81 and 86 and 113 (2×)
same,"Post Challenge Pruritus %, Average",Horse; [3],81%
same,"Post Challenge Pruritus Score/120, Average",Horse; [3],97.3
same,Post Challenge Pruritus %,"Horse; IL-31 0.25 μg/kg IV, individual horses (Table 2C)",79% and 70% and 91% and 68% and 72% and 94% (2×)
same,"Post Challenge Pruritus %, Average",Horse; [4],48%
same,"Post Challenge Pruritus Score/120, Average",Horse; [4],57.6
same,Post Challenge Pruritus %,Horse; [5],47% and 17% and 9% and 73% and 57% and 72% and 43% and 68%
same,Post Challenge Pruritus Score/120,Horse; [5],56 and 20 and 11 and 87 and 68 and 86 and 52 and 81
same,Post Challenge Pruritus Score/120,"Horse; IL-31 0.5 μg/kg IV, 120 min observation, individual horses (Table 2B)",120 (2×) and 70 and 117 and 106 and 93 and 110
same,"Post Challenge Pruritus %, Average",Horse; [6],88%
same,"Post Challenge Pruritus Score/120, Average",Horse; [6],105.1
same,Post Challenge Pruritus %,"Horse; IL-31 0.5 μg/kg IV, individual horses (Table 2B)",100% (2×) and 58% and 98% and 88% and 78% and 92%
same,"Post Challenge Pruritus Score/120, Average","Horse; IL-31 1.0 μg/kg IV, 120 min observation, average (Table 2A)",114.7
same,Post Challenge Pruritus Score/120,"Horse; IL-31 1.0 μg/kg IV, 120 min observation, individual horses (Table 2A)",120 (2×) and 104
same,"Post Challenge Pruritus %, Average","Horse; IL-31 1.0 μg/kg IV, average (Table 2A)",96%
same,Animal health observations after post challenge observation period,"Horse; IL-31 1.0 μg/kg IV, first three horses, given diphenhydramine",uncomfortable level of pruritus and needed treatment
same,Post Challenge Pruritus %,"Horse; IL-31 1.0 μg/kg IV, individual horses (Table 2A)",100% (2×) and 87%
same,Animal health observations: adverse events of anaphylaxis,"Horse; IL-31 0.05-1.0 μg/kg IV, horses",No adverse events of anaphylaxis were noted
